Laboratory results as given in the supplement of paper PMC10126150.
± gives the standard deviation of the averaged measurements.
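Also: ATP exposure 15 min at 22 °C before imaging.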

The sequences below were run on ATP (assay: switch fluorescence ratio, 500 uM ATP over buffer (Cy3 cluster intensity, sum of 5 cycles each) (fold (ratio)); higher = stronger signal-on switching upon ATP binding; sequences stand for … in TCGTCGGCAGCGTCAGATGTGTATAAGAGACAGTTTTTTTTTTTTTTTTTTTTTTTTT…TC). Conditions: aptamer strand: ATP DNA aptamer (quencher-CACCTGGGGGAGTATTGCGGAGGAAGG + anchor), 100 nM annealed; ATP concentration: 500 uM.
In short: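 The fluorescence ratio divides summed target-cycle Cy3 intensity by summed buffer-cycle Cy3 intensity for each cluster and is averaged per switch-domain sequence. Cy3-labelled switching-strand clusters on a modified Illumina MiSeq flow-cell were annealed to 100 nM quencher-labelled ATP aptamer, then imaged in selection buffer and again after 15 min with 500 uM ATP at 22 °C. Five such cycles were run, with NaOH stripping and re-annealing between them, and clusters outside 100-1000 RFU were excluded.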
In the case of ACTTAGGCGG, the switch fluorescence ratio is reported as 1 ± 0.011. Work on GGTTGAGTTC yielded a switch fluorescence ratio of 0.948 ± 0.036. For GACTAAAGTA, the switch fluorescence ratio was 1.05 ± 0.074. In the case of ATTCAGAAGA, the switch fluorescence ratio is reported as 1.07 ± 0.12. With ATCTTTCGCG the switch fluorescence ratio was 1.02 ± 0.015. With GATTAGTGTT the switch fluorescence ratio was 1.01 ± 0.021. Work on TTCAGAAACA yielded a switch fluorescence ratio of 1.04 ± 0.037. AGAGAGTGAC gave a switch fluorescence ratio of 0.981 ± 0.01. Sequence AGGGAGTTGC has a switch fluorescence ratio of 1.03 ± 0.038. TTTTTTGTCT was tested, and the switch fluorescence ratio was 0.993 ± 0.021. AATGGTAATT showed a switch fluorescence ratio of 0.995 ± 0.039. Sequence TTTGTGGGTT has a switch fluorescence ratio of 0.997 ± 0.025. CAAGACAGCT showed a switch fluorescence ratio of 1.02 ± 0.031. In the case of GGAGAGAGGG, the switch fluorescence ratio is reported as 1.02 ± 0.044. Sequence GGCTACGTTT has a switch fluorescence ratio of 1.05 ± 0.084. TTTACTGAGA was tested, and the switch fluorescence ratio was 1.01 ± 0.033. GAATTAACAA gave a switch fluorescence ratio of 0.999 ± 0.024. Work on GTGGTAAACG yielded a switch fluorescence ratio of 1 ± 0.029. GTAAGGGATT gave a switch fluorescence ratio of 1.025 ± 0.0068. GATGAAGGTG was tested, and the switch fluorescence ratio was 1.28 ± 0.061. CAGAGATTTA was tested, and the switch fluorescence ratio was 0.995 ± 0.024. For CGGTTAGGAA, the switch fluorescence ratio was 1.01 ± 0.025. TTTGCTCAGG showed a switch fluorescence ratio of 1.09 ± 0.037. AGGCTAAGAT gave a switch fluorescence ratio of 1.0077 ± 0.001. Work on TGTGCAGCG yielded a switch fluorescence ratio of 1.02 ± 0.022. In the case of GGGCTTTTGG, the switch fluorescence ratio is reported as 0.9868 ± 0.0012. Work on AAATGGTTTT yielded a switch fluorescence ratio of 1 ± 0.024. For ATCCTTGCG, the switch fluorescence ratio was 1.022 ± 0.0053. For GATTGTGCGG, the switch fluorescence ratio was 0.981 ± 0.025. For GCATGATAAC, the switch fluorescence ratio was 1.04 ± 0.02. CCCTTGTGTG gave a switch fluorescence ratio of 1.43 ± 0.051. Work on GGTTCCGGTA yielded a switch fluorescence ratio of 0.9998 ± 0.00095. For CCACCGGTAT, the switch fluorescence ratio was 1.69 ± 0.048. In the case of GGGGGGGGCT, the switch fluorescence ratio is reported as 1 ± 0.045. Sequence CTTTTCGGCT has a switch fluorescence ratio of 1.04 ± 0.028. Work on GAGGGCCTTT yielded a switch fluorescence ratio of 0.968 ± 0.048. In the case of CGTGTAAGGG, the switch fluorescence ratio is reported as 0.974 ± 0.04. For GGGGTAACGG, the switch fluorescence ratio was 0.987 ± 0.036. Work on TTTGGACTGG yielded a switch fluorescence ratio of 1.01 ± 0.067. Sequence CAGCGGGCGT has a switch fluorescence ratio of 0.963 ± 0.01. With ACTTTGATGT the switch fluorescence ratio was 1.01 ± 0.012. For ACATGTTGTT, the switch fluorescence ratio was 0.993 ± 0.024. TTTATTTTAT was tested, and the switch fluorescence ratio was 1.02 ± 0.057. With GATGCGTATG the switch fluorescence ratio was 0.997 ± 0.02. TTATATTAG was tested, and the switch fluorescence ratio was 0.9817 ± 0.001. In the case of AACGAGAAGC, the switch fluorescence ratio is reported as 0.9895 ± 0.004. For CTTTGGCCGG, the switch fluorescence ratio was 1.011 ± 0.0087. In the case of TTTGCATTAG, the switch fluorescence ratio is reported as 1.11 ± 0.028. Work on AACGCCTTCG yielded a switch fluorescence ratio of 1.177 ± 0.011. TGTTTATATC showed a switch fluorescence ratio of 0.9856 ± 0.0076. With GAGGGAAATG the switch fluorescence ratio was 0.997 ± 0.098. CTTTTTAGGT showed a switch fluorescence ratio of 0.998 ± 0.012. TTAGCTTTTT showed a switch fluorescence ratio of 1.01 ± 0.054. For TCGCAGCTTG, the switch fluorescence ratio was 1.05 ± 0.029. For AGGCAACCAC, the switch fluorescence ratio was 1.23 ± 0.033. TCCCCGTCGA gave a switch fluorescence ratio of 1.88 ± 1.2. In the case of GCTTTGGTGA, the switch fluorescence ratio is reported as 0.991 ± 0.019. For CCGTTAGTGG, the switch fluorescence ratio was 1.04 ± 0.042. Work on GGTATAAAGA yielded a switch fluorescence ratio of 0.984 ± 0.049. Work on CTGGTTCGTC yielded a switch fluorescence ratio of 1.005 ± 0.0071. ATGCTGGGCG showed a switch fluorescence ratio of 1.02 ± 0.041. Work on TGGGCGCATT yielded a switch fluorescence ratio of 1.68 ± 0.88. ATCGGGGAGA was tested, and the switch fluorescence ratio was 0.997 ± 0.017. Work on TAAAGGAAGG yielded a switch fluorescence ratio of 0.9801 ± 0.0066. For AGGCGTAAAT, the switch fluorescence ratio was 0.997 ± 0.029. Sequence CGGGCCGGGC has a switch fluorescence ratio of 0.983 ± 0.029. ATTATGTCGT was tested, and the switch fluorescence ratio was 1 ± 0.013. TCCAATCGGT showed a switch fluorescence ratio of 0.973 ± 0.019. TTTTTAAATC showed a switch fluorescence ratio of 1 ± 0.044. GGCCCGGCAC was tested, and the switch fluorescence ratio was 1.01 ± 0.013. GTATAAGGGG was tested, and the switch fluorescence ratio was 0.977 ± 0.026. Work on AAAATCTGGT yielded a switch fluorescence ratio of 1.03 ± 0.015. In the case of TTTGATATGC, the switch fluorescence ratio is reported as 1.116 ± 0.0054. Sequence TTGAGGGAGC has a switch fluorescence ratio of 1.09 ± 0.038. For CCAGTTGGGA, the switch fluorescence ratio was 1 ± 0.032. Sequence GGGCTGTGTG has a switch fluorescence ratio of 1.02 ± 0.035. AACAGCAATT showed a switch fluorescence ratio of 1.27 ± 0.35. Work on CTATCGGGGT yielded a switch fluorescence ratio of 0.993 ± 0.015. For TTTGTTATGC, the switch fluorescence ratio was 1.03 ± 0.032. Sequence AATTGCCTGT has a switch fluorescence ratio of 0.933 ± 0.071. CGCTACGTGT showed a switch fluorescence ratio of 1.02 ± 0.038. For GGGGAATGAA, the switch fluorescence ratio was 1.019 ± 0.009. Work on ACTTGGGCGT yielded a switch fluorescence ratio of 1.03 ± 0.038. TTCACTGGGG showed a switch fluorescence ratio of 1.05 ± 0.012. Sequence AAGATCTCGC has a switch fluorescence ratio of 0.994 ± 0.025. With GGGAAAAGGC the switch fluorescence ratio was 1.02 ± 0.035. With ATGGGTGCCT the switch fluorescence ratio was 1.03 ± 0.023. With CCAGCTGGGT the switch fluorescence ratio was 1.0117 ± 0.0005. GGAGGGATAA showed a switch fluorescence ratio of 1.1 ± 0.054. ACGAATTCTG was tested, and the switch fluorescence ratio was 1.02 ± 0.042. For GGTTTTCTGT, the switch fluorescence ratio was 0.997 ± 0.016. TGATTGGGTG showed a switch fluorescence ratio of 1.01 ± 0.054. Sequence TAGGTGGGCT has a switch fluorescence ratio of 1.011 ± 0.0064. Work on CCTTATTTTC yielded a switch fluorescence ratio of 0.9984 ± 0.0059. In the case of CCGTTTTAGT, the switch fluorescence ratio is reported as 1.02 ± 0.039. GGTGAGAGGT was tested, and the switch fluorescence ratio was 0.9696 ± 0.0055. TCGGTCTAAC gave a switch fluorescence ratio of 1 ± 0.015. With AGCAGCGCGG the switch fluorescence ratio was 1.04 ± 0.042. TTGAGCTGTG showed a switch fluorescence ratio of 1.02 ± 0.019. GAGGATAGGT gave a switch fluorescence ratio of 0.98 ± 0.011.
